Results published in patent US20250296959A1, “B7-H3 TARGETING PEPTIDES AND CONSTRUCTS THEREOF” (Mariana Oncology Inc., priority 2024, published 2025).
Starred links: 1 amine or outer side, 2 acyl side, 3 side chain; linkers in the order of their positions; H or OH if unused. Positions of bridges follow the written chain, without caps; N, C: chain ends. Non-standard residues stand in square brackets, D forms with d. Groups on a side chain read outwards from the residue. Primed or numbered codes have the meaning given here. *: point of attachment. Ala(piperidin-4-yl) = O=C([C@H](CC1CCN([*:3])CC1)N[*:1])[*:2]; DOTA = O=C(O)CN1CCN(CC(=O)O)CCN(CC(=O)*)CCN(CC(=O)O)CC1; Phe(4-COOH) = N[C@@H](Cc1ccc(C(=O)O)cc1)C(=O)O; Trp(5-F) = N[C@@H](Cc1c[nH]c2ccc(F)cc12)C(=O)O; PEG4′ = 4x 3-(2-aminoethoxy)propanoic acid; 1Nal = N[C@@H](Cc1cccc2ccccc12)C(=O)O; Ala(4-THP) = N[C@@H](CC1CCOCC1)C(=O)O; Val(3-OH) = CC(C)(O)[C@H](N)C(=O)O; 4Pal = N[C@@H](Cc1ccncc1)C(=O)O; aThr = C[C@H](O)[C@H](N)C(=O)O; Chg = N[C@H](C(=O)O)C1CCCCC1; Tle = CC(C)(C)[C@H](N)C(=O)O; hLeu = CC(C)CC[C@H](N)C(=O)O; Sar = CNCC(=O)O

T1: B7-H3 on Calu-6 cells (human, UniProt Q5ZPR3 29-534)
T1 construct: whole, on cells
T1 sequence (looked up): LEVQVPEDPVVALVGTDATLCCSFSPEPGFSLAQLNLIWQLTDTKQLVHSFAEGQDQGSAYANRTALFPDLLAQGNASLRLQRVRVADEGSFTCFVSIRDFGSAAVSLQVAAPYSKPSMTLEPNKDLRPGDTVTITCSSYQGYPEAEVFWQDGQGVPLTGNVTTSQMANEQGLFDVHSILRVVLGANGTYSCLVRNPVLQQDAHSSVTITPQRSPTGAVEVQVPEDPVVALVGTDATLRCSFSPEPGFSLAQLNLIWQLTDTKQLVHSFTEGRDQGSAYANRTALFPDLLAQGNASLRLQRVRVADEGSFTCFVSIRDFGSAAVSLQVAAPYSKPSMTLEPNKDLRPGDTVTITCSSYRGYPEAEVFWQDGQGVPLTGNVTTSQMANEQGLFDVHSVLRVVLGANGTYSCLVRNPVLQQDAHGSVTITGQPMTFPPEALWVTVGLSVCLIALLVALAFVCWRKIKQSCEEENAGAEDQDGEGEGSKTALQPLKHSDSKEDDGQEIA


How the values were obtained:
B7-H3 on Calu-6 cells [1] = target: T1, B7-H3 on Calu-6 cells; assay: 177Lu-labelled peptide on Calu-6 cells, % cell associated fraction; C = >50%
B7-H3 on Calu-6 cells [2] = target: T1, B7-H3 on Calu-6 cells; assay: 177Lu-labelled peptide on Calu-6 cells, % cell associated fraction; B = 25<%<=50

Binder	% cell associated fraction (B7-H3 on Calu-6 cells [1])	% cell associated fraction (B7-H3 on Calu-6 cells [2])
Ac-[hLeu]YCVGKYDVYC[Trp(5-F)]FT[dK](DOTA)-NH2 (disulfide 3-11; SMILES CC(=O)N[C@@H](CCC(C)C)C(=O)N[C@@H](Cc1ccc(O)cc1)C(=O)N[C@H]1CSSC[C@@H](C(=O)N[C@@H](Cc2c[nH]c3ccc(F)cc23)C(=O)N[C@@H](Cc2ccccc2)C(=O)N[C@H](C(=O)N[C@H](CCCCNC(=O)CN2CCN(CC(=O)O)CCN(CC(=O)O)CCN(CC(=O)O)CC2)C(N)=O)[C@@H](C)O)NC(=O)[C@H](Cc2ccc(O)cc2)NC(=O)[C@H](C(C)C)NC(=O)[C@H](CC(=O)O)NC(=O)[C@H](Cc2ccc(O)cc2)NC(=O)[C@H](CCCCN)NC(=O)CNC(=O)[C@H](C(C)C)NC1=O) [Cpd 73]	> 50%	
Ac-[hLeu]YCVGKYDVYC[Trp(5-F)]FP[dK](DOTA)-NH2 (disulfide 3-11) [Cpd 160]		25 to 50%
Ac-[hLeu]YCV[Sar]KYDVYCWFT[dK](DOTA)-NH2 (disulfide 3-11; SMILES CC(=O)N[C@@H](CCC(C)C)C(=O)N[C@@H](Cc1ccc(O)cc1)C(=O)N[C@H]1CSSC[C@@H](C(=O)N[C@@H](Cc2c[nH]c3ccccc23)C(=O)N[C@@H](Cc2ccccc2)C(=O)N[C@H](C(=O)N[C@H](CCCCNC(=O)CN2CCN(CC(=O)O)CCN(CC(=O)O)CCN(CC(=O)O)CC2)C(N)=O)[C@@H](C)O)NC(=O)[C@H](Cc2ccc(O)cc2)NC(=O)[C@H](C(C)C)NC(=O)[C@H](CC(=O)O)NC(=O)[C@H](Cc2ccc(O)cc2)NC(=O)[C@H](CCCCN)NC(=O)CN(C)C(=O)[C@H](C(C)C)NC1=O) [Cpd 74]		25 to 50%
Ac-[hLeu]YC[Tle]GKYDVYC[Trp(5-F)]FT[dK](DOTA)-NH2 (disulfide 3-11; SMILES CC(=O)N[C@@H](CCC(C)C)C(=O)N[C@@H](Cc1ccc(O)cc1)C(=O)N[C@H]1CSSC[C@@H](C(=O)N[C@@H](Cc2c[nH]c3ccc(F)cc23)C(=O)N[C@@H](Cc2ccccc2)C(=O)N[C@H](C(=O)N[C@H](CCCCNC(=O)CN2CCN(CC(=O)O)CCN(CC(=O)O)CCN(CC(=O)O)CC2)C(N)=O)[C@@H](C)O)NC(=O)[C@H](Cc2ccc(O)cc2)NC(=O)[C@H](C(C)C)NC(=O)[C@H](CC(=O)O)NC(=O)[C@H](Cc2ccc(O)cc2)NC(=O)[C@H](CCCCN)NC(=O)CNC(=O)[C@H](C(C)(C)C)NC1=O) [Cpd 76]	> 50%	
Ac-[hLeu]YCV[Sar]KYDVYC[Trp(5-F)]FT[dK](DOTA)-NH2 (disulfide 3-11; SMILES CC(=O)N[C@@H](CCC(C)C)C(=O)N[C@@H](Cc1ccc(O)cc1)C(=O)N[C@H]1CSSC[C@@H](C(=O)N[C@@H](Cc2c[nH]c3ccc(F)cc23)C(=O)N[C@@H](Cc2ccccc2)C(=O)N[C@H](C(=O)N[C@H](CCCCNC(=O)CN2CCN(CC(=O)O)CCN(CC(=O)O)CCN(CC(=O)O)CC2)C(N)=O)[C@@H](C)O)NC(=O)[C@H](Cc2ccc(O)cc2)NC(=O)[C@H](C(C)C)NC(=O)[C@H](CC(=O)O)NC(=O)[C@H](Cc2ccc(O)cc2)NC(=O)[C@H](CCCCN)NC(=O)CN(C)C(=O)[C@H](C(C)C)NC1=O) [Cpd 77]	> 50%	
Ac-[hLeu]YC[Tle]GK[4Pal]DVYCWFT[dK](DOTA)-NH2 (disulfide 3-11; SMILES CC(=O)N[C@@H](CCC(C)C)C(=O)N[C@@H](Cc1ccc(O)cc1)C(=O)N[C@H]1CSSC[C@@H](C(=O)N[C@@H](Cc2c[nH]c3ccccc23)C(=O)N[C@@H](Cc2ccccc2)C(=O)N[C@H](C(=O)N[C@H](CCCCNC(=O)CN2CCN(CC(=O)O)CCN(CC(=O)O)CCN(CC(=O)O)CC2)C(N)=O)[C@@H](C)O)NC(=O)[C@H](Cc2ccc(O)cc2)NC(=O)[C@H](C(C)C)NC(=O)[C@H](CC(=O)O)NC(=O)[C@H](Cc2ccncc2)NC(=O)[C@H](CCCCN)NC(=O)CNC(=O)[C@H](C(C)(C)C)NC1=O) [Cpd 157]		25 to 50%
Ac-[hLeu]YCVGKYDVYC[1Nal]FT[dK](DOTA)-NH2 (disulfide 3-11; SMILES CC(=O)N[C@@H](CCC(C)C)C(=O)N[C@@H](Cc1ccc(O)cc1)C(=O)N[C@H]1CSSC[C@@H](C(=O)N[C@@H](Cc2cccc3ccccc23)C(=O)N[C@@H](Cc2ccccc2)C(=O)N[C@H](C(=O)N[C@H](CCCCNC(=O)CN2CCN(CC(=O)O)CCN(CC(=O)O)CCN(CC(=O)O)CC2)C(N)=O)[C@@H](C)O)NC(=O)[C@H](Cc2ccc(O)cc2)NC(=O)[C@H](C(C)C)NC(=O)[C@H](CC(=O)O)NC(=O)[C@H](Cc2ccc(O)cc2)NC(=O)[C@H](CCCCN)NC(=O)CNC(=O)[C@H](C(C)C)NC1=O) [Cpd 158]	> 50%	
Ac-[hLeu]YCVGKYDVYC[Trp(5-F)]F[aThr][dK](DOTA)-NH2 (disulfide 3-11) [Cpd 162]		25 to 50%
Ac-[hLeu]YC[Tle]GKYDVYC[1Nal]FT[dK](DOTA)-NH2 (disulfide 3-11; SMILES CC(=O)N[C@@H](CCC(C)C)C(=O)N[C@@H](Cc1ccc(O)cc1)C(=O)N[C@H]1CSSC[C@@H](C(=O)N[C@@H](Cc2cccc3ccccc23)C(=O)N[C@@H](Cc2ccccc2)C(=O)N[C@H](C(=O)N[C@H](CCCCNC(=O)CN2CCN(CC(=O)O)CCN(CC(=O)O)CCN(CC(=O)O)CC2)C(N)=O)[C@@H](C)O)NC(=O)[C@H](Cc2ccc(O)cc2)NC(=O)[C@H](C(C)C)NC(=O)[C@H](CC(=O)O)NC(=O)[C@H](Cc2ccc(O)cc2)NC(=O)[C@H](CCCCN)NC(=O)CNC(=O)[C@H](C(C)(C)C)NC1=O) [Cpd 179]		25 to 50%
Ac-[hLeu]YCVGK[4Pal]D[Chg]YC[Trp(5-F)]FT[dK](DOTA)-NH2 (disulfide 3-11; SMILES CC(=O)N[C@@H](CCC(C)C)C(=O)N[C@@H](Cc1ccc(O)cc1)C(=O)N[C@H]1CSSC[C@@H](C(=O)N[C@@H](Cc2c[nH]c3ccc(F)cc23)C(=O)N[C@@H](Cc2ccccc2)C(=O)N[C@H](C(=O)N[C@H](CCCCNC(=O)CN2CCN(CC(=O)O)CCN(CC(=O)O)CCN(CC(=O)O)CC2)C(N)=O)[C@@H](C)O)NC(=O)[C@H](Cc2ccc(O)cc2)NC(=O)[C@H](C2CCCCC2)NC(=O)[C@H](CC(=O)O)NC(=O)[C@H](Cc2ccncc2)NC(=O)[C@H](CCCCN)NC(=O)CNC(=O)[C@H](C(C)C)NC1=O) [Cpd 190]	> 50%	
Ac-[hLeu]YCVGK[Ala(4-THP)]DVYC[Trp(5-F)]FP[dK]([PEG4′-DOTA])-NH2 (disulfide 3-11) [Cpd 282]		25 to 50%
Ac-[hLeu]YCVGK[Ala(4-THP)]DVYC[Trp(5-F)]FT[dK](DOTA)-NH2 (disulfide 3-11; SMILES CC(=O)N[C@@H](CCC(C)C)C(=O)N[C@@H](Cc1ccc(O)cc1)C(=O)N[C@H]1CSSC[C@@H](C(=O)N[C@@H](Cc2c[nH]c3ccc(F)cc23)C(=O)N[C@@H](Cc2ccccc2)C(=O)N[C@H](C(=O)N[C@H](CCCCNC(=O)CN2CCN(CC(=O)O)CCN(CC(=O)O)CCN(CC(=O)O)CC2)C(N)=O)[C@@H](C)O)NC(=O)[C@H](Cc2ccc(O)cc2)NC(=O)[C@H](C(C)C)NC(=O)[C@H](CC(=O)O)NC(=O)[C@H](CC2CCOCC2)NC(=O)[C@H](CCCCN)NC(=O)CNC(=O)[C@H](C(C)C)NC1=O) [Cpd 200]	> 50%	
Ac-[hLeu]YCVGKYD[Chg]YC[Trp(5-F)]FT[dK](DOTA)-NH2 (disulfide 3-11) [Cpd 215]	> 50%	
Ac-[hLeu]YC[Tle]GK[Ala(4-THP)]DVYC[1Nal]FP[dK]([PEG4′-DOTA])-NH2 (disulfide 3-11) [Cpd 259]		25 to 50%
Ac-[hLeu]YCVG[Ala(piperidin-4-yl)][Phe(4-COOH)]DVYC[Trp(5-F)]FP[dK](DOTA)-NH2 (disulfide 3-11; SMILES CC(=O)N[C@@H](CCC(C)C)C(=O)N[C@@H](Cc1ccc(O)cc1)C(=O)N[C@H]1CSSC[C@@H](C(=O)N[C@@H](Cc2c[nH]c3ccc(F)cc23)C(=O)N[C@@H](Cc2ccccc2)C(=O)N2CCC[C@H]2C(=O)N[C@H](CCCCNC(=O)CN2CCN(CC(=O)O)CCN(CC(=O)O)CCN(CC(=O)O)CC2)C(N)=O)NC(=O)[C@H](Cc2ccc(O)cc2)NC(=O)[C@H](C(C)C)NC(=O)[C@H](CC(=O)O)NC(=O)[C@H](Cc2ccc(C(=O)O)cc2)NC(=O)[C@H](CC2CCNCC2)NC(=O)CNC(=O)[C@H](C(C)C)NC1=O) [Cpd 286]	> 50%	
Ac-[hLeu]YCIGK[Ala(4-THP)]DVYC[Trp(5-F)]F[Val(3-OH)][dK]([PEG4′-DOTA])-OH (disulfide 3-11) [Cpd 308]	> 50%	
